Source: article PMC9912195, “The 3D‐structure, kinetics and dynamics of the E. coli nitroreductase NfsA with NADP ^+ provide glimpses of its catalytic mechanism” (Febs Letters, 2022)

Key:
NfsA [1] = biological target: T1, NfsA (Escherichia coli, UniProt P17117); experiment: steady-state inhibition of nitrofurazone reduction, global ping-pong fit, […] nm; assay type: biochemical
T1 construct: full-length, untagged, from pET24 derivative pPS1341A1 in E. coli BL21(lambda DE3); 240 amino acids

NfsA [2] = biological target: T1, NfsA; experiment: stopped-flow re-oxidation of reduced enzyme, […] nm, anaerobic; assay type: biochemical; conditions: dithionite-reduced enzyme
[3] = system: NC(=O)C1=CN([C@@H]2O[C@H](COP(=O)(O)OP(=O)(O)OC[C@H]3O[C@@H](n4cnc5c(N)ncnc54)[C@H](O)[C@@H]3O)[C@@H](O)[C@H]2O)C=CC1; experiment: purified protein; assay type: biochemical, Escherichia coli; conditions: 100 μM nitrofurazone, 10 mM Tris pH 7.0, 4.5% DMSO, 25 °C
[4] = system: NC(=O)C1=CN([C@@H]2O[C@H](COP(=O)(O)OP(=O)(O)OC[C@H]3O[C@@H](n4cnc5c(N)ncnc54)[C@H](OP(=O)(O)O)[C@@H]3O)[C@@H](O)[C@H]2O)C=CC1; experiment: purified protein; assay type: biochemical, Escherichia coli; conditions: 100 μM nitrofurazone, 10 mM Tris pH 7.0, 4.5% DMSO, 25 °C
[5] = system: NC(=O)N/N=C/c1ccc([N+](=O)[O-])o1; experiment: purified protein; assay type: biochemical, Escherichia coli; conditions: co-substrate NADPH, 10 mM Tris pH 7.0, 50 mM NaCl, 4.5% DMSO, 25 °C
NfsA [6] = biological target: T1, NfsA; experiment: steady-state kinetics; assay type: biochemical; conditions: co-substrate NADPH

T1 sequence (P17117 whole entry): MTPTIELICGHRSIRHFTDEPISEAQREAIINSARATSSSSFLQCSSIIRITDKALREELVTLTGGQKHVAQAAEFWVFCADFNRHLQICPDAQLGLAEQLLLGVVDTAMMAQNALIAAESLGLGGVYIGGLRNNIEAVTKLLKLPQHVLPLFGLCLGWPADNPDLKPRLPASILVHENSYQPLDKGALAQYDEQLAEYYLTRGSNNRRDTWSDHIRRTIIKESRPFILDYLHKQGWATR

NC(=O)c1ccc[n+]([C@@H]2O[C@H](COP(=O)(O)OP(=O)(O)OC[C@H]3O[C@@H](n4cnc5c(N)ncnc54)[C@H](OP(=O)(O)O)[C@@H]3O)[C@@H](O)[C@H]2O)c1 [NADP^+] was tested, and the Ki (NfsA [1]) was 250 ± 70 µM.
Work on NC(=O)c1cc(N2CC2)c([N+](=O)[O-])cc1[N+](=O)[O-] [CB1954, 5 aziridin‐1‐yl‐2,4 dinitrobenzamide] yielded a K d (NfsA [2]; 10 mM Tris pH 7, 5% DMSO, 25 °C, unreliable (extrapolated beyond highest concentration 500 μM)) of 660 ± 90 µM.
With NfsA (Escherichia coli K-12) the Km [3] was 700 ± 100 µM, the kcat [3] was 20 ± 1 s⁻¹ and the kcat/Km [3] was 27000 ± 3000 M⁻¹ s⁻¹. It also gave a Km [4] of 19 ± 4 µM, a kcat [4] of 24 ± 1 s⁻¹ and a kcat/Km [4] of 1.2e+06 ± 200000 M⁻¹ s⁻¹. It also gave a Km [5] of 12 µM and a kcat [5] of 23.1 s⁻¹.
Work on CC1=CC(=O)c2ccccc2C1=O [menadione] yielded a K d (NfsA [2]; 10 mM Tris pH 7, 25 °C, unreliable (extrapolated, highest concentration 100 μM)) of 330 ± 115 µM and a Km (NfsA [6]) of 11 ± 2 µM.
